# Measured values: publication PMC8287685, “Archaeal Orc1 protein interacts with T-rich single-stranded DNA”
# T1: ApOrc1 (Orc1-1) (Aeropyrum pernix, UniProt Q9YEV6 1-395)
# T1 sequence: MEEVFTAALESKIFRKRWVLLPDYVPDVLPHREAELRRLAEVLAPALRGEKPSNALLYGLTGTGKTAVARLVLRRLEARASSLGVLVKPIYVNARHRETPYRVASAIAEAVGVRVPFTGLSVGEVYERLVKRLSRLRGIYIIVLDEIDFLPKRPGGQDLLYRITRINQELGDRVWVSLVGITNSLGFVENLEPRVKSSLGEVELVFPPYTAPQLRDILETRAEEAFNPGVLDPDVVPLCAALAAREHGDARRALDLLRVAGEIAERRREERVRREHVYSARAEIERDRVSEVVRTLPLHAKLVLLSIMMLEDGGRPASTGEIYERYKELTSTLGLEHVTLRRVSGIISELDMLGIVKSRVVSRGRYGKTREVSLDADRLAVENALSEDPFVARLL
# Tests used:
# ApOrc1 (Orc1-1) [1] = target: T1, ApOrc1 (Orc1-1); assay: SPR; SPR: HBS-EP + 10 mM MgCl2, 2 mM ATP; BLI (room temperature) and MST: EDBS (25 mM Tris-HCl pH 8, 4% sucrose, 4 mM DTT, 80 ug/mL BSA, 10 mM Mg(OAc)2, 2 mM [truncated]); EMSA: 40 mM HEPES-KOH pH 8, 25 mM [truncated], 5% PAGE in TBE; settings: protein: recombinant; label: Biotin-14-dCTP by TdT
# ApOrc1 (Orc1-1) [2] = target: T1, ApOrc1 (Orc1-1); assay: MST; SPR: HBS-EP + 10 mM MgCl2, 2 mM ATP; BLI (room temperature) and MST: EDBS (25 mM Tris-HCl pH 8, 4% sucrose, 4 mM DTT, 80 ug/mL BSA, 10 mM Mg(OAc)2, 2 mM [truncated]); EMSA: 40 mM HEPES-KOH pH 8, 25 mM [truncated], 5% PAGE in TBE; settings: protein: recombinant; label: 5' Cy3
# SSB [3] = target: T2, SSB (Escherichia coli, UniProt P0AGE0 1-178); assay: SPR; no significant difference from R bottom; SPR: HBS-EP + 10 mM MgCl2, 2 mM ATP; BLI (room temperature) and MST: EDBS (25 mM Tris-HCl pH 8, 4% sucrose, 4 mM DTT, 80 ug/mL BSA, 10 mM Mg(OAc)2, 2 mM [truncated]); EMSA: 40 mM HEPES-KOH pH 8, 25 mM [truncated], 5% PAGE in TBE; settings: chain copies: 4; label: 5' biotin (BLI, SPR); fluorescent (MST)
# T2 sequence (P0AGE0 whole entry, the tested form may be a part): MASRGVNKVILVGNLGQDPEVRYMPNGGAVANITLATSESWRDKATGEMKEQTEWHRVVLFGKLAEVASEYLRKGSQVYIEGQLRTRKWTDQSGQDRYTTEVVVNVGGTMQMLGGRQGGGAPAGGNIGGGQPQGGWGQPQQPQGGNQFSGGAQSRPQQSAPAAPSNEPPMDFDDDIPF
# ApOrc1 (Orc1-1) [4] = target: T1, ApOrc1 (Orc1-1); assay: SPR; ATP, Mg2+; SPR: HBS-EP + 10 mM MgCl2, 2 mM ATP; BLI (room temperature) and MST: EDBS (25 mM Tris-HCl pH 8, 4% sucrose, 4 mM DTT, 80 ug/mL BSA, 10 mM Mg(OAc)2, 2 mM [truncated]); EMSA: 40 mM HEPES-KOH pH 8, 25 mM [truncated], 5% PAGE in TBE; settings: protein: recombinant; label: 5' biotin (BLI, SPR); fluorescent (MST)
# ApOrc1 (Orc1-1) [5] = target: T1, ApOrc1 (Orc1-1); assay: as above; settings: protein: recombinant; label: 5' biotin (BLI, SPR); fluorescent (MST); remark: listed apart in the source
# SSB [6] = target: T2, SSB; assay: SPR; no significant difference from R top; SPR: HBS-EP + 10 mM MgCl2, 2 mM ATP; BLI (room temperature) and MST: EDBS (25 mM Tris-HCl pH 8, 4% sucrose, 4 mM DTT, 80 ug/mL BSA, 10 mM Mg(OAc)2, 2 mM [truncated]); EMSA: 40 mM HEPES-KOH pH 8, 25 mM [truncated], 5% PAGE in TBE; settings: chain copies: 4; label: 5' biotin (BLI, SPR); fluorescent (MST)
# ApOrc1 (Orc1-1) [7] = target: T1, ApOrc1 (Orc1-1); assay: BLI; higher than L top; SPR: HBS-EP + 10 mM MgCl2, 2 mM ATP; BLI (room temperature) and MST: EDBS (25 mM Tris-HCl pH 8, 4% sucrose, 4 mM DTT, 80 ug/mL BSA, 10 mM Mg(OAc)2, 2 mM [truncated]); EMSA: 40 mM HEPES-KOH pH 8, 25 mM [truncated], 5% PAGE in TBE; settings: protein: recombinant; label: 5' biotin
# ApOrc1 (Orc1-1) [8] = target: T1, ApOrc1 (Orc1-1); assay: BLI; among the highest; SPR: HBS-EP + 10 mM MgCl2, 2 mM ATP; BLI (room temperature) and MST: EDBS (25 mM Tris-HCl pH 8, 4% sucrose, 4 mM DTT, 80 ug/mL BSA, 10 mM Mg(OAc)2, 2 mM [truncated]); EMSA: 40 mM HEPES-KOH pH 8, 25 mM [truncated], 5% PAGE in TBE; settings: protein: recombinant; label: 5' biotin
# ApOrc1 (Orc1-1) [9] = target: T1, ApOrc1 (Orc1-1); assay: SPR; highest response; SPR: HBS-EP + 10 mM MgCl2, 2 mM ATP; BLI (room temperature) and MST: EDBS (25 mM Tris-HCl pH 8, 4% sucrose, 4 mM DTT, 80 ug/mL BSA, 10 mM Mg(OAc)2, 2 mM [truncated]); EMSA: 40 mM HEPES-KOH pH 8, 25 mM [truncated], 5% PAGE in TBE; settings: protein: recombinant; label: 5' biotin
binder,measurement,setting,value
polyA(60) (ssDNA) DNA: AAAAAAAAAAAAAAAAAAAAAAAAAAAAAAAAAAAAAAAAAAAAAAAAAAAAAAAAAAAA,binding result,ApOrc1 (Orc1-1) [1],no binding
polyA(70) (ssDNA) DNA: AAAAAAAAAAAAAAAAAAAAAAAAAAAAAAAAAAAAAAAAAAAAAAAAAAAAAAAAAAAAAAAAAAAAAA,binding result,ApOrc1 (Orc1-1) [2],no binding
R top (ssDNA) DNA: CAAATCAAGCTAGAAACAAACAAAGACACACTATAATCCAGAACTGCACAGCCTGA,binding result,SSB [3],binds
same,binding signal,ApOrc1 (Orc1-1) [4],~0.33 fold SPR response vs R bottom (stated as R bottom 3 times higher)
R bottom (ssDNA) DNA: TCAGGCTGTGCAGTTCTGGATTATAGTGTGTCTTTGTTTGTTTCTAGCTTGATTTG,binding signal,ApOrc1 (Orc1-1) [5],~3 fold SPR response vs R top
same,binding result,SSB [6],binds
L bottom (ssDNA) DNA: TTTAAAACTGGGTTTTTGTATCATTATATTGGCATTCTTCAAGAGCACTATTCGGGAGGAGTATACGCTTC,binding result,ApOrc1 (Orc1-1) [7],binds
TTTAAAACTGGGTTTTTGTATCATTATATTGGCAT (ssDNA) [L2 bottom],binding result,ApOrc1 (Orc1-1) [8],binds
polyT(60) (ssDNA) DNA: TTTTTTTTTTTTTTTTTTTTTTTTTTTTTTTTTTTTTTTTTTTTTTTTTTTTTTTTTTTT,binding result,ApOrc1 (Orc1-1) [1],binds
polyT(70) (ssDNA) DNA: TTTTTTTTTTTTTTTTTTTTTTTTTTTTTTTTTTTTTTTTTTTTTTTTTTTTTTTTTTTTTTTTTTTTTT,binding result,ApOrc1 (Orc1-1) [2],binds
TGTGTCTTTGTTTGTTTCTAGCTTGATTTG (ssDNA) [R1 bottom],binding result,ApOrc1 (Orc1-1) [9],binds
